Experimental data from patent publication US20240239898A1 (published 2024).

Assays:
[1] = molecular target: recombinant human FcRn (heterodimer of FcRn heavy chain and beta2-microglobulin) (human) (UniProt P55899); test: BLI (Octet), biotinylated human FcRn on streptavidin sensors, pH 6, 1:1 model
[2] = molecular target: T1, recombinant human FcRn (heterodimer of FcRn heavy chain and beta2-microglobulin) (human, UniProt P55899 24-297; P61769 21-119, limits assumed, biotinylated for the Octet assay (site not stated)); test: BLI (Octet) on recombinant FcRn, pH 6 against neutral pH
T1 construct: In-house recombinant heterodimeric FcRn; captured as biotinylated protein on streptavidin sensors for BLI; also called hFcRn; Fc neonatal receptor
Protocol: (§1) Octet binding analysis. […] Biotinylated FcRn at 1 μg/mL in PBS buffer (pH 7.4) or 100 mM MES buffer (pH 6.0), with 3 mg/mL bovine serum albumin, 0.05% (vol/vol) and Tween 20 (1× Kinetics Buffer; ForteBio), were captured on streptavidin biosensors (ForteBio). The loaded biosensors were washed with assay buffer to remove any unbound protein, followed by association and dissociation measurements with serial dilutions of the different Fc variants or Fc fusion constructs. Octet software (version 7.2) was used to calculate kinetic parameters (kₒₙ and koff) and apparent affinities (KD) from a nonlinear fit based on the 1:1 binding kinetic model of the data, with the equation

[3] = molecular target: T1, recombinant human FcRn (heterodimer of …); test: BLI (Octet), biotinylated human FcRn on streptavidin sensors, pH 6, 1:1 model
Protocol: as §1

| Kd [1] [nM] | fold decrease from pH 6 binding to neutral pH binding [2] [fold] | Kd [3] [nM] | Molecule |
| --- | --- | --- | --- |
| 370 | – | – | MFc1 (C4), monomeric IgG4 Fc variant with YTE mutations (from UniProt P01861 111-327) |
| – | ~50 | 5 | MFc4 (T1-S354E), monomeric IgG4 Fc variant (other, Engineered IgG4 CH2-CH3 with the CH3 monomer set, S354E and the half-life mutation set around residues 432-438 in place of YTE) GPSVFLFPPKPKDTLMISRTPEVTCVVVDVSQEDPEVQFNWYVDGVEVHNAKTKPREEQFNSTYRVVSVLTVLHQDWLNGKEYKCKVSNKGLPSSIEKTISKAKGQPREPQVYTFPPEQEEMTKNQVSLRCLVKGFYPSDIAVEWESNGQPENNYKTTKPVLDSDGSFRLESRLTVDKSRWQEGNVFSCSVMHEACSYHLCKSLSLSL |
| – | – | 3560 | MFc2 (C4n), monomeric IgG4 Fc variant with no YTE mutations (other) GPSVFLFPPKPKDTLMISRTPEVTCVVVDVSQEDPEVQFNWYVDGVEVHNAKTKPREEQFNSTYRVVSVLTVLHQDWLNGKEYKCKVSNKGLPSSIEKTISKAKGQPREPQVYTFPPSQEEMTKNQVSLRCLVKGFYPSDIAVEWESNGQPENNYKTTKPVLDSDGSFRLESRLTVDKSRWQEGNVFSCSVMHEALHNHYTQKSLSLSL |
| – | ~50 | 330 | MFc3, the S354E point mutant of MFc1 (other) GPSVFLFPPKPKDTLYITREPEVTCVVVDVSQEDPEVQFNWYVDGVEVHNAKTKPREEQFNSTYRVVSVLTVLHQDWLNGKEYKCKVSNKGLPSSIEKTISKAKGQPREPQVYTFPPEQEEMTKNQVSLRCLVKGFYPSDIAVEWESNGQPENNYKTTKPVLDSDGSFRLESRLTVDKSRWQEGNVFSCSVMHEALHNHYTQKSLSLSL |
